Paper PMC6588349, “Conformational dynamics between transmembrane domains and allosteric modulation of a metabotropic glutamate receptor” (eLife, 2019)

Biological target: the molecule itself
Assay: single-molecule pulldown (SiMPull) with subunit counting by photobleaching steps; surface receptors labelled with BG-LD555 on HEK 293T cells, lysed in 1.2% IGEPAL, diluted in 0.1% IGEPAL, immobilised by biotinylated anti-HA antibody on a PEG-passivated coverslip, TIRF imaging; SNAP labelling efficiency ~80%; background two-step bleaching ~5-10%

| Protein | percent of spots bleaching in two steps | stoichiometry N |
| --- | --- | --- |
| SNAP-mGluR2-TMD (HA-SNAP-tagged isolated transmembrane domain of mGluR2) (domain or fragment, rat, UniProt P31421 558-872, looked up, SNAP tag labelled with BG-LD555 (SiMPull); with BG-LD655 as acceptor or with a mixture of BG-LD555 and BG-LD655 (FRET), mGluR2, rat; LBD and CRD deleted; following the SNAP tag the receptor starts at Q558; Made by modifying the full-length SNAP-tagged cDNA of Doumazane et al., 2011; also called HA-SNAP-mGluR2-TMD; isolated mGluR2 TMD; source: HEK 293T, transfected; surface-labelled, in detergent lysate (SiMPull); on living cells (FRET); not shown: HA, N-terminal, kept; SNAP, N-terminal, kept) QEYIRWGDAWAVGPVTIACLGALATLFVLGVFVRHNATPVVKASGRELCYILLGGVFLCYCMTFVFIAKPSTAVCTLRRLGLGTAFSVCYSALLTKTNRIARIFGGAREGAQRPRFISPASQVAICLALISGQLLIVAAWLVVEAPGTGKETAPERREVVTLRCNHRDASMLGSLAYNVLLIALCTLYAFKTRKCPENFNEAKFIGFTMYTTCIIWLAFLPIFYVTSSDYRVQTTTMCVSVSLSGSVVLGCLFAPKLHIILFQPQKNVVSHRAPTSRFGSAAPRASANLGQGSGSQFVPTVCNGREVVDSTTSSL | ~45% | 2 |
| SNAP-mGluR3-TMD (domain or fragment, rat, UniProt P31422 567-879, looked up, SNAP tag labelled with BG-LD555, mGluR3, rat; LBD and CRD deleted; following the SNAP tag the receptor starts at E567; Made by modifying the full-length SNAP-tagged cDNA of Doumazane et al., 2011; source: HEK 293T, transfected, surface-labelled, in detergent lysate; not shown: HA, N-terminal, kept; SNAP, N-terminal, kept) EDYIKWEDAWAIGPVTIACLGFLCTCIVITVFIKHNNTPLVKASGRELCYILLFGVSLSYCMTFFFIAKPSPVICALRRLGLGTSFAICYSALLTKTNCIARIFDGVKNGAQRPKFISPSSQVFICLGLILVQIVMVSVWLILETPGTRRYTLPEKRETVILKCNVKDSSMLISLTYDVVLVILCTVYAFKTRKCPENFNEAKFIGFTMYTTCIIWLAFLPIFYVTSSDYRVQTTTMCISVSLSGFVVLGCLFAPKVHIVLFQPQKNVVTHRLHLNRFSVSGTATTYSQSSASTYVPTVCNGREVLDSTTSSL | ~30% | 2 |
| SNAP-mGluR5-TMD (domain or fragment, human, UniProt P41594 570-1212, looked up, SNAP tag labelled with BG-LD555 (SiMPull); with donor and acceptor fluorophores (FRET), mGluR5, human; LBD and CRD deleted; following the SNAP tag the receptor starts at V570; Made by modifying the full-length SNAP-tagged cDNA of Doumazane et al., 2011; source: HEK 293T, transfected; surface-labelled, in detergent lysate (SiMPull); on living cells (FRET); not shown: HA, N-terminal, kept; SNAP, N-terminal, kept) VQYLRWGDPEPIAAVVFACLGLLATLFVTVVFIIYRDTPVVKSSSRELCYIILAGICLGYLCTFCLIAKPKQIYCYLQRIGIGLSPAMSYSALVTKTNRIARILAGSKKKICTKKPRFMSACAQLVIAFILICIQLGIIVALFIMEPPDIMHDYPSIREVYLICNTTNLGVVTPLGYNGLLILSCTFYAFKTRNVPANFNEAKYIAFTMYTTCIIWLAFVPIYFGSNYKIITMCFSVSLSATVALGCMFVPKVYIILAKPERNVRSAFTTSTVVRMHVGDGKSSSAASRSSSLVNLWKRRGSSGETLRYKDRRLAQHKSEIECFTPKGSMGNGGRATMSSSNGKSVTWAQNEKSSRGQHLWQRLSIHINKKENPNQTAVIKPFPKSTESRGLGAGAGAGGSAGGVGATGGAGCAGAGPGGPESPDAGPKALYDVAEAEEHFPAPARPRSPSPISTLSHRAGSASRTDDDVPSLHSEPVARSSSSQGSLMEQISSVVTRFTANISELNSMMLSTAAPSPGVGAPLCSSYLIPKEIQLPTTMTTFAEIQPLPAIEVTGGAQPAAGAQAAGDAARESPAAGPEAAAAKPDLEELVALTPPSPFRDSVDSGSTTPNSPVSESALCIPSSPKYDTLIIRDYTQSSSSL | ~30% | 2 |
| SNAP-tagged full-length mGluR2 (HA-SNAP-mGluR2) (receptor, rat, UniProt P31421 19-872, looked up, SNAP tag labelled with BG-LD555 (SiMPull); SNAP tag labelled with donor and acceptor fluorophores (inter-LBD FRET), metabotropic glutamate receptor 2 (mGluR2), rat, full-length, behind N-terminal HA and SNAP tags; construct of Doumazane et al., 2011; also called mGluR2-WT; WT-SNAP-mGluR2; source: HEK 293T, transfected; surface-labelled, in detergent lysate (SiMPull); on living cells (FRET); not shown: HA, N-terminal, kept; SNAP, N-terminal, kept) EGPAKKVLTLEGDLVLGGLFPVHQKGGPAEECGPVNEHRGIQRLEAMLFALDRINRDPHLLPGVRLGAHILDSCSKDTHALEQALDFVRASLSRGADGSRHICPDGSYATHSDAPTAVTGVIGGSYSDVSIQVANLLRLFQIPQISYASTSAKLSDKSRYDYFARTVPPDFFQAKAMAEILRFFNWTYVSTVASEGDYGETGIEAFELEARARNICVATSEKVGRAMSRAAFEGVVRALLQKPSARVAVLFTRSEDARELLAATQRLNASFTWVASDGWGALESVVAGSERAAEGAITIELASYPISDFASYFQSLDPWNNSRNPWFREFWEERFHCSFRQRDCAAHSLRAVPFEQESKIMFVVNAVYAMAHALHNMHRALCPNTTHLCDAMRPVNGRRLYKDFVLNVKFDAPFRPADTDDEVRFDRFGDGIGRYNIFTYLRAGSGRYRYQKVGYWAEGLTLDTSFIPWASPSAGPLPASRCSEPCLQNEVKSVQPGEVCCWLCIPCQPYEYRLDEFTCADCGLGYWPNASLTGCFELPQEYIRWGDAWAVGPVTIACLGALATLFVLGVFVRHNATPVVKASGRELCYILLGGVFLCYCMTFVFIAKPSTAVCTLRRLGLGTAFSVCYSALLTKTNRIARIFGGAREGAQRPRFISPASQVAICLALISGQLLIVAAWLVVEAPGTGKETAPERREVVTLRCNHRDASMLGSLAYNVLLIALCTLYAFKTRKCPENFNEAKFIGFTMYTTCIIWLAFLPIFYVTSSDYRVQTTTMCVSVSLSGSVVLGCLFAPKLHIILFQPQKNVVSHRAPTSRFGSAAPRASANLGQGSGSQFVPTVCNGREVVDSTTSSL | ~60% | 2 |
| SNAP-mGluR1-TMD (domain or fragment, rat, UniProt P23385 583-1199, looked up, SNAP tag labelled with BG-LD555, LBD and CRD deleted; following the SNAP tag the receptor starts at V583; Made by modifying the full-length SNAP-tagged cDNA of Doumazane et al., 2011; source: HEK 293T, transfected, surface-labelled, in detergent lysate; not shown: HA, N-terminal, kept; SNAP, N-terminal, kept) VRYLEWSDIESIIAIAFSCLGILVTLFVTLIFVLYRDTPVVKSSSRELCYIILAGIFLGYVCPFTLIAKPTTTSCYLQRLLVGLSSAMCYSALVTKTNRIARILAGSKKKICTRKPRFMSAWAQVIIASILISVQLTLVVTLIIMEPPMPILSYPSIKEVYLICNTSNLGVVAPVGYNGLLIMSCTYYAFKTRNVPANFNEAKYIAFTMYTTCIIWLAFVPIYFGSNYKIITTCFAVSLSVTVALGCMFTPKMYIIIAKPERNVRSAFTTSDVVRMHVGDGKLPCRSNTFLNIFRRKKPGAGNANSNGKSVSWSEPGGRQAPKGQHVWQRLSVHVKTNETACNQTAVIKPLTKSYQGSGKSLTFSDASTKTLYNVEEEDNTPSAHFSPPSSPSMVVHRRGPPVATTPPLPPHLTAEETPLFLADSVIPKGLPPPLPQQQPQQPPPQQPPQQPKSLMDQLQGVVTNFGSGIPDFHAVLAGPGTPGNSLRSLYPPPPPPQHLQMLPLHLSTFQEESISPPGEDIDDDSERFKLLQEFVYEREGNTEEDELEEEEDLPTASKLTPEDSPALTPPSPFRDSVASGSSVPSSPVSESVLCTPPNVTYASVILRDYKQSSSTL | ~30% | 2 |
